From patent publication US20210009693A1 (MABSPACE BIOSCIENCES SUZHOU, published 2021)
Positions count from the first letter of the chain named. In names and notes the source's numbering stands. Like-named read-outs stand apart in the source and are kept apart here. Each block holds one binder with its values, some of them ahead of it.

Key:
[1] = target: T1, human PD-L1 expressed on cells (human, UniProt Q9NZQ7 19-290); test: FACS, IFN-gamma stimulated HCC827 cells
T1 construct: whole, on cells; also called hPD-L1 expressed on HCC827; hPD-L1 on MC38/hPD-L1 cells

[2] = target: T2, Recombinant Human PD-L1/CD274 Protein (hPD-L1-his) (human, UniProt Q9NZQ7 19-238); test: ELISA on coated hPD-L1-his; bound at pH7.4, then 2 h at pH7.4
T2 construct: range 19-238; ACRO Biosystem PD1-H5229, made in HEK293; also called human PD-L1-his; hPD-L-his
Protocol: (§1) The pH-dependent binding affinity was further measured at various pH values, such as pH4, pH4.5, pH5.0, pH5.5, pH6.0, pH7.4. The measurement by ELISA was conducted similarly to the method described above. High-binding clear polystyrene 96 well plates were coated with 100 μl/well of a 0.5 μg/ml hPD-L1-his in high pH coating buffer and incubated overnight at 4° C. Then the coated plates were washed 3 times with shaking for 10s on an automatic plate washer with PBS+0.1% Tween 20 (Amresco). Then 200 μl of blocking buffer (1% BSA (Solarbio)+1% normal goat serum (Solarbio)+0.05% Tween 20 (Amresco)) was added to each well and the plates were then incubated for 2 hours at room temperature and washed 3 times as above. […] The plates were then washed once with 250 μl/well washing buffer at pH7.4, pH6.0, pH5.5, pH5.0, pH4.5 or pH4.0 and then 100 μl/well pH7.4 or pH5.5 washing buffer was added and the incubation was continued for 2 hours at RT with shaking. Afterwards, the plates was washed 3 times washing buffer at pH7.4 and 100 μl/well of a solution of HRP conjugated goat anti-hIgG HRP antibody (1:20000, Abcam) in pH7.4 dilution buffer was then added to each well of the plate. After that the plates were allowed to incubate for 60 min at room temperature followed by washing 3 times with 250 μl/well pH7.4 washing buffer. Finally, 100 μl/well of TMB was added to each well for 15 min and the reaction was terminated using 50 μl/well of 0.16M/L sulfuric acid. The plates were read on a Thermo Multiscan FC at 450 nm (see FIG. 23A-23F). The measurements were performed in triplicate.

[3] = target: T2, Recombinant Human PD-L1/CD274 Protein …; test: ELISA on coated hPD-L1-his; bound at pH7.4, then 2 h at pH5.5
Protocol: as §1, with “Finally, 100 μl/well of TMB was added to each well for 15 min and the reaction was terminated using 50 μl/well of 0.16M/L sulfuric acid.” left out, “The measurements were performed in triplicate.” left out

[4] = target: T3, human PD-L1-Fc mutant E58A (human); test: ELISA on captured PD-L1-Fc, as in Example 18A
T3 construct: Position 58 counts on native human PD-L1 (NP_054862.1); also called E58A mutant

[5] = target: T4, wild type human PD-L1-Fc protein (SEQ ID NO: 107) (human); test: ELISA on captured PD-L1-Fc, as in Example 18A
T4 construct: Extracellular human PD-L1 (amino acid 19-238) with Fc fragment of human IgG1, expressed in 293T cells and used as culture supernatant; also called WT PD-L1; wild-type PD-L1

[6] = target: hPD-L1 (antigen of the Biacore assay) (human, UniProt Q9NZQ7 19-238, limits assumed); test: SPR (Biacore), antibody captured on anti-human Fc, antigen in flow
Protocol: A CM5 sensor chip was activated in each flow cell by 7-min injection (10 μl/min) of freshly prepared 1:1 50 mM N-hydroxysuccinimide (NHS): 200 mM 1-ethyl-3-(3-dimethylaminopropyl)-carbodiimide (EDC). Then anti-human Fc antibody (GE Healthcare) in a concentration of 10 μg/ml in 10 mM sodium acetate buffer PH 5.0 was injected onto the activated chip at 10 μl/min (HBS-EP running buffer: 10 mM HEPES, 150 mM NaCl, 3.4 mM EDTA, 0.005% surfactant P20, pH 7.4). The remaining active coupling sites were blocked by 7 min injection of 1M ethanolamine at 10 μl/min. The immobilization level of each flow cell is ˜9000RU. Antibodies were captured in FC2 by anti-human Fe IgG (GE Healthcare) to 200˜300RU. FC1 was used as the reference cell. Antigen was injected at varying concentrations after capture of antibody. The association time for antibody binding antigen is 180s. Surface Regeneration condition is 120s at 10 μl/min in Gly pH1.5. The signals with captured antibody subtracted from those without captured antibody were calculated with Biacore X100 evaluation software ver. 2.0 (Biacore).

[7] = target: T5, Human PD-L1/CD274 with C-Fc Tag (hPD-L1-Fc) (human, UniProt Q9NZQ7 19-238); test: blocking ELISA on coated hPD-L1-Fc; blocked ligand: biotinylated hPD-1-N297A
T5 construct: range 19-238; ACRO Biosystem PD1-H5258, made in HEK293; also called human PD-L1-Fc; not shown: Fc fragment of human IgG1 at C-terminus
Protocol: High-binding clear polystyrene 96 well plates (Nunc) were coated with 100 μl/well of coating solution consisting of 1 μg/ml hPD-L1-Fc overnight at 4° C. Then the plates were washed once on an automatic plate washer using washing buffer (PBS+0.1% Tween 20 (Sigma)). 200 μl of blocking buffer (PBS+1% BSA+1% normal goat serum+0.05% Tween-20) was added to each well and incubated 2 hours at room temp. […] The plates were then washed 3 times using the method described above. […] After the plates were washed 3 times, 100 μl/well of a solution of 1:5000 diluted HRP conjugated Neutravidin antibody (Pierce) in dilution buffer was then added to each well of the plate. After that the ELISA plates were allowed to incubate for 60 min at RT, then the plates were washed 3 times with 250 μl/well washing buffer. Finally, 100 μl/well of TMB was added to each well and the reaction was terminated using 0.64M H₂SO₄. The plates were read on a Thermo Multiscan FC at 450 nM (see FIG. 18A to 18D).

[8] = target: T2, Recombinant Human PD-L1/CD274 Protein …; test: ELISA, coated hPD-L1-his, acidic wash and incubation after binding at pH7.4
Protocol: as §1

[9] = target: T1, human PD-L1 expressed on cells; test: blocking FACS on HCC827 cells; blocked ligand: biotinylated hPD-1-N297A
Protocol: (§2) Log phase IFN-γ stimulated (500U/ml for 2 days) HCC827 cells were collected and resuspended in blocking buffer (5% BSA+PBS). 2×10\hat{ }5 cells were added to each tube and then washed once with PBS (1500 rpm, 5 mins, RT). […] After washing for three times with PBS, 100 μl/tube streptavidin-PE 1:200 in blocking buffer was added to each tube. The cells were incubated at 4° C. for 1 hr and then washed twice with PBS, followed by resuspending cells in 150 μl PBS for each sample. The cells were then transferred into FACS tube and the binding of the antibodies to the cells were detected with flow cytometry (ACEA Bioscience Novocyte) (see FIGS. 20A and 20B).

[10] = target: T2, Recombinant Human PD-L1/CD274 Protein …; test: ELISA on coated hPD-L1-his
[11] = target: T2, Recombinant Human PD-L1/CD274 Protein …; test: ELISA on coated hPD-L1-his; bound at pH7.4, then 2 h at pH5.5; remark: listed apart in the source
[12] = target: T2, Recombinant Human PD-L1/CD274 Protein …; test: ELISA on coated hPD-L1-his; bound at pH7.4, then 2 h at pH7.4; remark: listed apart in the source
[13] = target: T1, human PD-L1 expressed on cells; test: FACS, IFN-gamma stimulated HCC827 cells; remark: listed apart in the source
Protocol: Log phase IFN-γ stimulated (500U/ml for 2 days) HCC827 cells were collected and resuspended in blocking buffer (5% BSA+PBS). 2×10\hat{ }5 cells were added to each tube and then washed once with PBS (1500 rpm, 5 mins, RT). The 100 μl/tube serial diluted biotinylated PD-L1 antibodies with blocking buffer were added into corresponding tubes and incubate at 4° C. for 1 hr.

[14] = target: T1, human PD-L1 expressed on cells; test: blocking FACS on HCC827 cells; blocked ligand: biotinylated hPD-1-N297A; remark: listed apart in the source
Protocol: as §2, with “RT). The 100 μl/tube serial diluted PD-L1 antibodies (see FIG. 8) with blocking buffer were added into corresponding tubes and incubate at 4° C. for 1 hr.” for “RT).”, “1:200 (EBiosciences)” for “1:200”, “Novocyte).” for “Novocyte) (see FIGS. 20A and 20B).”

[15] = target: T2, Recombinant Human PD-L1/CD274 Protein …; test: ELISA on coated hPD-L1-his; bound at pH7.4, then 2 h at pH7.4; remark: listed apart in the source
[16] = target: T2, Recombinant Human PD-L1/CD274 Protein …; test: ELISA on coated hPD-L1-his; bound at pH7.4, then 2 h at pH5.5; remark: listed apart in the source
[17] = target: T2, Recombinant Human PD-L1/CD274 Protein …; test: ELISA on coated hPD-L1-his; bound at pH7.4, then 2 h at pH7.4; remark: listed apart in the source
[18] = target: T2, Recombinant Human PD-L1/CD274 Protein …; test: ELISA on coated hPD-L1-his; bound at pH7.4, then 2 h at pH5.5; remark: listed apart in the source

Chain of hPD-L1 (antigen of the Biacore assay) (Q9NZQ7 19-238 limits assumed): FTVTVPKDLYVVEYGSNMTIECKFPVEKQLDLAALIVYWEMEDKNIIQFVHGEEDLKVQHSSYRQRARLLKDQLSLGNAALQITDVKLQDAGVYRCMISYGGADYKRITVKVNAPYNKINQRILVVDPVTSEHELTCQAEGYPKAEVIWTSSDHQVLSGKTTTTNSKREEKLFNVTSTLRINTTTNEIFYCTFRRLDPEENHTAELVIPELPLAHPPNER
T1 sequence (Q9NZQ7 19-290): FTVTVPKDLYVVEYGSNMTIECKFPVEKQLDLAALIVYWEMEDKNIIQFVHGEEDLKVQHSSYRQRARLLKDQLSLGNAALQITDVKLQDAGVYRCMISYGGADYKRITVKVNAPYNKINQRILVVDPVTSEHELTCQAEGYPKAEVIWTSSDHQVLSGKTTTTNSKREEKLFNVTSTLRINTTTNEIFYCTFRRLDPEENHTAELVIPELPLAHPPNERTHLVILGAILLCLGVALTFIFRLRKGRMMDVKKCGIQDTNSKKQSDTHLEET
T4 sequence (chain, as listed by the source limits assumed): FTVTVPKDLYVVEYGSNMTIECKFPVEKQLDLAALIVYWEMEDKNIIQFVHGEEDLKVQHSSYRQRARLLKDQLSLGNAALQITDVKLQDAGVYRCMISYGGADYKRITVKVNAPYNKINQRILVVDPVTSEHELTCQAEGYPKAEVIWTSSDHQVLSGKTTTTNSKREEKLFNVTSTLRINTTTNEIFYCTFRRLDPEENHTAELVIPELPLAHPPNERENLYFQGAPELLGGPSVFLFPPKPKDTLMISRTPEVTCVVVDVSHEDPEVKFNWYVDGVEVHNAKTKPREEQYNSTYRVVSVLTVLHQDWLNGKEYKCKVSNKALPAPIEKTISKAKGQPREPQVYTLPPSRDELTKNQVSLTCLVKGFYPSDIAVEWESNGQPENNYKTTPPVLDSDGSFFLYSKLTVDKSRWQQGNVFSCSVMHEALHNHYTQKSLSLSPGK
T2 sequence (Q9NZQ7 other isoform, or with tags, fused parts or gaps limits assumed): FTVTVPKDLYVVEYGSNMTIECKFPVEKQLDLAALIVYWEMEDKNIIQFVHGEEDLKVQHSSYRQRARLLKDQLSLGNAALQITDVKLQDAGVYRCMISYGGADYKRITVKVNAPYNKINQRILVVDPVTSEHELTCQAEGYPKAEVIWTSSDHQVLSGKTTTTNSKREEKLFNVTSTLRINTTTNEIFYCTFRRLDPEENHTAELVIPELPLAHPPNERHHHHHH
T3 sequence (chain, as listed by the source E58A E58A limits assumed): as the sequence (chain, as listed by the source limits assumed) above, with E40A counted along it
T5 sequence (Q9NZQ7 19-238 limits assumed): as the sequence (Q9NZQ7 19-238 limits assumed) above

EC50 (read off the curve) [1]: ~0.02 µg/mL
EC50 (read off the curve) [2]: ~0.01 µg/mL
EC50 (read off the curve) [3]: ~0.02 µg/mL
% of binding of Ab to E58A mutant vs. that to WT PD-L1 [4]: 8.3%
Mean OD450 [4]: 0.111 OD450
OD450 nM of sample-1 [4]: 0.128 OD450
OD450 nM of sample-2 [4]: 0.094 OD450
Mean OD450 [5]: 1.34 OD450
OD450 nM of sample-1 [5]: 1.22 OD450
OD450 nM of sample-2 [5]: 1.47 OD450
Kd [6]: 43.2 nM
koff [6]: 0.0223 s⁻¹
kon [6]: 517000 M⁻¹ s⁻¹
IC50 (read off the curve) [7]: ~0.05 µg/mL
binding signal at pH5 as percent of the signal at pH7.4 [8]: < 50%
binding signal at pH5.5 as percent of the signal at pH7.4 [8]: < 75%
IC50 (read off the curve) [9]: ~0.05 µg/mL
EC50 (read off the curve) [10]: ~2 ng/mL
B1: 23A11-H3L5 (antibody, V domains shown)
VH: LVQLVQSGAEVKKPGASVKLSCKASGYIFTTYWIHWVKQRPGQGLEWIGMIQPNSGGTKYNDQFKNRATLTVDKSISTAYMELSRLTSDDTAVYYCARGAGTVDYFDYWGQGTTLSISS
VL: DIVLTQSPASLAVSVGQRATITCRASESVDIYGNSFMHWYQQKPGQAPKLLIYRASNLESGIPARFSGSGSRTDFTLTINPVEANDTATYYCQQSNDDPYTFGGGTKLETK
notes: Human IgG1 constant region with N297A; biotinylated in the alanine-scan ELISA; also called 23A11-H3L5-bio; humanized 23A11

EC50 (read off the curve) [11]: ~8 ng/mL
EC50 (read off the curve) [12]: ~6 ng/mL
IC50 (read off the curve) [9]: ~0.05 µg/mL
B2: 23A11-H3L5 CHO (antibody, V domains shown)
VH: B1 VH with L1Q
VL: B1 VL with N85Q
notes: CHO-produced counterpart of m16; also called 23A11-H3L5 produced in CHO cells

EC50 (read off the curve) [13]: ~0.1 µg/mL
IC50 (read off the curve) [14]: ~0.09 µg/mL
EC50 (read off the curve) [15]: ~0.01 µg/mL
EC50 (read off the curve) [16]: ~0.02 µg/mL
B3: 26F5-C (antibody, V domains shown)
VH: QVQLQQPGAELVKPGASVKLSCKASGYTFPSYWMHWMKQRPGQGLEWIGMIQPSTSGTIYNERFKNQVTLTVDKSSSTAYMQLSSQTSEDSAVYYCARGTGTVDYFDYWGQGTTLTVSS
VL: DIVLTQSPASLAVSLGQRATISCRASESVDSYGNSFIHWYQQKPGQPPKLLIHRASNLESGIPATFSGSGSRTDFTLTINPVEADDVATYYCQQSKEDPYTFGGGTKLEIK
notes: Mouse variable regions fused to a human IgG1 constant region; also called 26F5-chimeric; chimeric antibody 26F5

EC50 (read off the curve) [17]: ~0.01 µg/mL
EC50 (read off the curve) [18]: ~0.01 µg/mL
B4: 21F11-C (antibody, V domains shown)
VH: QVQLQQPGAELVKPGASVKLSCKASGYTFTSNWMHWVKQRPGQGLEWIGMMHPNSGSINYNEKFKNKATLTADKSSSTAYMQLSSLTSEDSAVYYCARSYYGSSPYYFDYWGQGTTLTVSS
VL: DIQMTQTTSSLSASLGDRVTISCRASQDISNYLNWYQQKPDGTVKLLIYYTSRLHSGVPSRFSGSGSGTDFSLTISNLEEEDIATYFCQQGDTLPWTFGGGTKLEIK
notes: Mouse variable regions fused to a human IgG1 constant region; also called 21F11-chimeric; chimeric antibody 21F11
